According to publication PMC7374754, “Selection of mutant µplasmin for amyloid-β cleavage in vivo” (Scientific Reports, 2020):

Target: human µPlm P642A (human)
Assay: cell-based or functional assay

B1: human alpha-2 antiplasmin (α2-AP), mature (natural protein, UniProt P08697-1 40-491, looked up)
chain: NQEQVSPLTLLKLGNQEPGGQTALKSPPGVCSRDPTPEQTHRLARAMMAFTADLFSLVAQTSTCPNLILSPLSVALALSHLALGAQNHTLQRLQQVLHAGSGPCLPHLLSRLCQDLGPGAFRLAARMYLQKGFPIKEDFLEQSEQLFGAKPVSLTGKQEDDLANINQWVKEATEGKIQEFLSGLPEDTVLLLLNAIHFQGFWRNKFDPSLTQRDSFHLDEQFTVPVEMMQARTYPLRWFLLEQPEIQVAHFPFKNNMSFVVLVPTHFEWNVSQVLANLSWDTLHPPLVWERPTKVRLPKLYLKHQMDLVATLSQLGLQELFQAPDLRGISEQSLVVSGVQHQSTLELSEVGVEAAAATSIAMSRMSLSSFSVNRPFLFFIFEDTTGLPLFVGSVRNPNPSAPRELKEQQDSPGNKDFLQSLKGFPRGDKLFGPDLKLVPPMEEDYPQFGSPK
  IC50 of α2-AP inhibition of amidolytic activity, fold relative to the wild-type: 2 fold of wild type
